Results: patent publication US6359127B1, “MCH2, an apoptotic cysteine protease, and compositions for making and methods of using the same” (Thomas Jefferson University, priority 1995, dated 2002)

B1: Mch2α: full length Mch2 isoform, 293 amino acid ~34 kDa Ced-3/ICE-like cysteine protease, SEQ ID NO:5 (protein)
chain: MSSASGLRRGHPAGGEENMTETDAFYKREMFDPAEKYKMDHRRRGIALIFNHERFFWHLTLPERRRTCADRDNLTRRFSDLGFEVKCFNDLKAEELLLKIHEVSTVSHADADCFVCVFLSHGEGNHIYAYDAKIEIQTLTGLFKGDKCHSLVGKPKIFIIQACRGNQHDVPVIPLDVVDNQTEKLDTNITEVDAASVYTLPAGADFLMCYSVAEGYYSHRETVNGSWYIQDLCEMLGKYGSSLEFTELLTLVNRKVSQRRVDFCKDPSAIGKKQVPCFASMLTKKLHFFPKSN
B2: ICEγ: isoform of interleukin-1 β converting enzyme (ICE), expressed as GST-fusion protein (protein)
chain: MADKVLKEKRKLFIRSMGEAPQAVQDNPAMPTSSGSEGNVKLCSLEEAQRIWKQKSAEIYPIMDKSSRTRLALIICNEEFDSIPRRTGAEVDITGMTMLLQNLGYSVDVKKNLTASDMTTELEAFAHRPEHKTSDSTFLVFMSHGIREGICGKKHSEQVPDILQLNAIFNMLNTKNCPSLKDKPKVIIIQACRGDSPGVVWFKDSVGVSGNLSLPTTEEFEDDAIKKAHIEKDFIAFCSSTPDNVSWRHPTMGSVFIGRLIEHMQEYACSCDVEEIFRKVRFSFEQPDGRAQMPTTERVTLTRCFYLFPGH
B3: ICE: mammalian interleukin-1 β converting enzyme, expressed from recombinant ICE baculovirus as control (protein)
chain: B2 chain
B4: Mch2β: alternatively spliced shorter Mch2 isoform, 204 amino acid ~23 kDa protein, SEQ ID NO:7 (protein)
chain: MSSASGLRRGHPAVSTVSHADADCFVCVFLSHGEGNHIYAYDAKIEIQTLTGLFKGDKCHSLVGKPKIFIIQACRGNQHDVPVIPLDVVDNQTEKLDTNITEVDAASVYTLPAGADFLMCYSVAEGYYSHRETVNGSWYIQDLCEMLGKYGSSLEFTELLTLVNRKVSQRRVDFCKDPSAIGKKQVPCFASMLTKKLHFFPKSN
B5: CPP32: human Cpp32 (Mch1) apoptotic cysteine protease, expressed as GST-fusion protein (protein)
chain: MENTENSVDSKSIKNLEPKIIHGSESMDSGISLDNSYKMDYPEMGLCIIINNKNFHKSTGMTSRSGTDVDAANLRETFRNLKYEVRNKNDLTREEIVELMRDVSKEDHSKRSSFVCVLLSHGEEGIIFGTNGPVDLKKITNFFRGDRCRSLTGKPKLFIIQACRGTELDCGIETDSGVDDDMACHKIPVEADFLYAYSTAPGYYSWRNSKDGSWFIQSLCAMLKQYADKLEFMHILTRVNRKVATEFESFSFDATFHAKKQIPCIVSMLTKELYFYH

Assays:
[1] = tested on: Sf9 cells; assay: apoptosis of Sf9 cells infected with recombinant baculovirus expressing the protein; format: cell-based, insect; settings: polyhedron promoter
From the text: To test whether expression of Mch2α has a similar apoptotic effect, Sf9 cells were infected with a recombinant baculovirus expressing Mch2α or Mch2β under the polyhedron promoter. Cells were also infected with the wild type virus and the recombinant ICE baculovirus as controls.

[2] = tested on: YVAD-AMC (SEQ ID NO:8); assay: cleavage of fluorogenic peptide YVAD-AMC by bacterial extracts expressing GST-fusion enzymes; format: biochemical; settings: for ability to cleave the YVAD substrate: total bacterial extracts, GST-fusion proteins
Procedure: (§1) To determine the enzymatic activity of Mch2, CPP32 or ICE, these enzymes were expressed in E. coli as fusion proteins with glutathione S-transferase (GST). A GST-CPP32-p20 fusion protein that contains amino acids 1-175 of CPP32 and a GST nonfusion protein were used as controls. After induction with IPTG, bacterial extracts were prepared from E. coli expressing the recombinant fusion proteins. The extracts were absorbed to glutathione-Sepharose resin, washed several times and then analyzed by SDS-PAGE. The ICEγ, CPP32 and Mch2α preparations containing GST-fusion proteins ranged in size from ˜28-35 kDa. The GST nonfusion protein control migrated as a ˜27-28 kDa protein. […] Aps26 of ICEγ which corresponds to Asp 119 of ICEα is a site that is cleaved during ICE activation. Cleavage at this site would generate a GST-fusion protein with a predicted molecular mass of ˜29 kDa that might correspond to the 31 kDa band. Cleavage at Asp 3 of ICEγ, although it is not a known ICE cleavage site, could generate the 28 kDa band (lane 2). Similar to the GST-ICEγ preparation, the GST-CPP32 and GST-Mch2 preparations contain smaller than predicted GST fusion products. The GST-CPP32 fusion product migrates as a ˜29-30 kDa protein. Cleavaae at Asp9 or Asp28 of CPP32 would generate products with predicted molecular masses of ˜27.3 kDa or ˜29.4 kDa, respectively. Based on the observed size of the GST-CPP32 product, CPP32 is most probably cleaved at Asp28, although it is possible that both sites are cleaved during CPP32 autoprocessing. Unlike the GST-CPP32 which contains full length CPP32, the GST-CPP32-p20 product which contains a truncated CPP32 migrates as a ˜46 kDa protein that agreed with its predicted molecular mass. […] Therefore if CPP32 is cleaved at Asp28, CPP32 appears to be made up of two subunits of relative molecular masses of 17 kDa and 11 kDa. However, the exact Asp cleavage sites that are utilized to generate active CPP32 remains to be determined by amino acid sequencing. The GST-Mch2α preparation contains two major bands that migrate as ˜31-32 kDa and ˜34-35 kDa proteins. This is consistent with cleavage at Asp23, Asp32 or Asp40 of Mch2α. These GST-Mch2α cleavage products are larger than the GST-CPP32 product because of the presence of extra 33 amino acids in the GST-Mch2α fusion construct that are derived from the 5′ untranslated region of Mch2α. A minor band of ˜27 kDa is also present in this preparation that could be due to cleavage at a site near the C-terminus of the GST peptide itself. The majority of GST-Mch2β was expressed in E. coli in […] and was not cleaved.
After establishing that Mch2 and CPP32 can autoprocess in bacteria, their enzymatic activity were tested using two fluorogenic peptide substrates, YVAD-AMC (SEQ ID NO:8) and DEVD-AMC (SEQ ID NO:3). The YVAD (SEQ ID NO:8) […] is the ICE cleavage site in pro-IL1β and the DEVD (SEQ ID NO:9) tetrapeptide is a site present in PARP that is cleaved by an ICE-like protein during apoptosis. The enzymatic activities of Mch2α, Mch2β, CPP32 and ICEγ, in total bacterial extracts from cells expressing these enzymes as GST-fusion proteins was studied using the YVAD-AMC (SEQ ID NO:8) and DEVD-AMC (SEQ ID NO:3) tetrapeptides as substrates. […] The purified GST-fusion products or the GST control extract had no enzymatic activity with either of the substrates.

[3] = tested on: DEVD-AMC (SEQ ID NO:3); assay: cleavage of fluorogenic peptide DEVD-AMC by bacterial extracts expressing GST-fusion enzymes; format: biochemical; settings: for ability to cleave the DEVD substrate: total bacterial extracts, GST-fusion proteins
Procedure: as §1
After establishing that Mch2 and CPP32 can autoprocess in bacteria, their enzymatic activity were tested using two fluorogenic peptide substrates, YVAD-AMC (SEQ ID NO:8) and DEVD-AMC (SEQ ID NO:3). […]

[4] = tested on: human PARP; assay: Western blot analysis of PARP cleavage after incubation with recombinant enzyme; format: biochemical; settings: Western blot with 4C10-5 antibody
Procedure: In apoptotic cells, nuclear proteins such as PARP, lamins and the 70-kDa protein component of the U1 small nuclear ribonucleoprotein are cleaved specifically by an unknown ICE-like cysteine protease(s). Cleavage of human PARP at the DEVD (SEQ ID NO:9) site (amino acid 211-214) would generate a large protein product of predicted molecular mass of 89.3 kDa (amino acids 215-1014). Western blot analysis of human PARP after incubation with recombinant Mch2α, Mch2β, ICEγ or CPP32 was performed using the 4C10-5 antibody. This antibody recognizes an epitope in the 41 kDa C-terminal chymotryptic fragment of PARP. CPP32 cleaved PARP to generate a major band of ˜90 kDa and a minor band of 57 kDa. The 90 kDa band was most probably generated by cleaving the DEVD (SEQ ID NO:9) site at residue 214 of PARP. This cleavage product is believed to correspond to an 85 kDa PARP cleavage product which has been described in apoptotic cells. The 57 kDa cleavage product is probably generated by cleavage at a site C-terminal to the DEVD (SEQ ID NO:9) site. This product was not detected with the C-2-10 antibody used in a previous study. This is probably because it recognizes an epitope that is N-terminal to the epitope that is recognized by the 4C10-5 antibody used in the present study. Mch2α also cleaved PARP to generate a major product of ˜83 kDa and a minor product of ˜57 kDa similar to that obtained with CPP32. PARP was not cleaved by Mch2β or ICEγ. […] Furthermore, the deletion in Mch2β abrogates its enzymatic activity.

| Molecule | characteristic signs of apoptosis (membrane blebbing, nuclear fragmentation and condensation, internucleosomal DNA cleavage) [1] | viability of infected cells [1] | ability to cleave the YVAD substrate [2] | ability to cleave the DEVD substrate [3] | cleavage of PARP [4] | activity in cleaving the YVAD substrate relative to CPP32 ([2]; ICEγ versus CPP32) | activity in cleaving the DEVD substrate relative to ICEγ or Mch2α ([3]; from initial rate of the reactions, assuming similar amount of each enzyme in extracts) |
| --- | --- | --- | --- | --- | --- | --- | --- |
| B1 | several characteristic signs of apoptosis | decrease in viability | No detectable enzymatic activity | able to cleave | cleaved PARP |  |  |
| B2 |  |  | able to cleave | able to cleave | not cleaved | about 3 fold |  |
| B3 | several characteristic signs of apoptosis |  |  |  |  |  |  |
| B4 |  |  | No detectable enzymatic activity |  | not cleaved |  |  |
| B5 |  |  | able to cleave | able to cleave | cleaved PARP |  | ~150 fold |
